{
  "source": "patent US20250186614A1",
  "about": "“COMPACT DRUG RESPONSIVE DOMAINS FOR REGULATION OF FUNCTION/ABUNDANCE AND DELIVERY OF POLYPEPTIDE PAYLOADS” (OBSIDIAN THERAPEUTICS, INC., priority 2022, published 2025)",
  "molecules": {"B1": {"name": "FKBP-124: FKBP13 DRD Q72R, Q84E, A117H, G49S; SEQ ID NO: 74 (protein)", "chain": "HCPIKSRKSDVLHMHYTGKLEDGTEFDSSLPRNQPFVFSLGTGEVIKGWDQGLLGMCEGEKRKLVIPSELGYGERGHPPKIPGGATLVFEVELLKIER", "modifications": "Description of sequence: FKBP13-AcGFP-mCherry Fusion; Construct Name: FKBP-124; FKBP13 DRD in Construct : FKBP13 (mutated to match FKBP12 active site Q72R Q84E A117H) (DRD G49S)"}, "B2": {"name": "FKBP-140: FKBP13 DRD Q72R, Q84E, A117W, K135Y; SEQ ID NO: 90 (protein)", "chain": "B1 chain with S9G, H77W, K95Y", "modifications": "Description of sequence: FKBP13-AcGFP-mCherry Fusion; Construct Name: FKBP-140; FKBP13 DRD in Construct : FKBP13 (mutated to match FKBP12 active site Q72R Q84E A117W) (DRD K135Y)"}, "B3": {"name": "FKBP-136: FKBP13 DRD Q72R, Q84E, A117W, S108M; SEQ ID NO: 86 (protein)", "chain": "B1 chain with S9G, S68M, H77W", "modifications": "Description of sequence: FKBP13-AcGFP-mCherry Fusion; Construct Name: FKBP-136; FKBP13 DRD in Construct : FKBP13 (mutated to match FKBP12 active site Q72R Q84E A117W) (DRD S108M)"}, "B4": {"name": "FKBP-125: FKBP13 DRD Q72R, Q84E, A117W, D62S; SEQ ID NO: 75 (protein)", "chain": "B1 chain with S9G, D22S, H77W", "modifications": "Description of sequence: FKBP13-AcGFP-mCherry Fusion; Construct Name: FKBP-125; FKBP13 DRD in Construct : FKBP13 (mutated to match FKBP12 active site Q72R Q84E A117W) (DRD D62S)"}, "B5": {"name": "FKBP-131: FKBP13 DRD Q72R, Q84E, A117W, T126C; SEQ ID NO: 81 (protein)", "chain": "B1 chain with S9G, H77W, T86C", "modifications": "Description of sequence: FKBP13-AcGFP-mCherry Fusion; Construct Name: FKBP-131; FKBP13 DRD in Construct : FKBP13 (mutated to match FKBP12 active site Q72R Q84E A117W) (DRD T126C)"}, "B6": {"name": "FKBP-127: FKBP13 DRD Q72R, Q84E, A117W, F76Q; SEQ ID NO: 77 (protein)", "chain": "B1 chain with S9G, F36Q, H77W", "modifications": "Description of sequence: FKBP13-AcGFP-mCherry Fusion; Construct Name: FKBP-127; FKBP13 DRD in Construct : FKBP13 (mutated to match FKBP12 active site Q72R Q84E A117W) (DRD F76Q)"}, "B7": {"name": "FKBP-139: FKBP13 DRD Q72R, Q84E, A117W, E130R; SEQ ID NO: 89 (protein)", "chain": "B1 chain with S9G, H77W, E90R", "modifications": "Description of sequence: FKBP13-AcGFP-mCherry Fusion; Construct Name: FKBP-139; FKBP13 DRD in Construct : FKBP13 (mutated to match FKBP12 active site Q72R Q84E A117W) (DRD E130R)"}, "B8": {"name": "FKBP-133: FKBP13 DRD Q72R, Q84E, A117W, G83T; SEQ ID NO: 83 (protein)", "chain": "B1 chain with S9G, G43T, H77W", "modifications": "Description of sequence: FKBP13-AcGFP-mCherry Fusion; Construct Name: FKBP-133; FKBP13 DRD in Construct : FKBP13 (mutated to match FKBP12 active site Q72R Q84E A117W) (DRD G83T)"}, "B9": {"name": "FKBP-126: FKBP13 DRD Q72R, Q84E, A117H, D62S; SEQ ID NO: 76 (protein)", "chain": "B1 chain with S9G, D22S", "modifications": "Description of sequence: FKBP13-AcGFP-mCherry Fusion; Construct Name: FKBP-126; FKBP13 DRD in Construct : FKBP13 (mutated to match FKBP12 active site Q72R Q84E A117H) (DRD D62S)"}, "B10": {"name": "FKBP-128: FKBP13 DRD Q72R, Q84E, A117W, H53L; SEQ ID NO: 78 (protein)", "chain": "B1 chain with S9G, H13L, H77W", "modifications": "Description of sequence: FKBP13-AcGFP-mCherry Fusion; Construct Name: FKBP-128; FKBP13 DRD in Construct : FKBP13 (mutated to match FKBP12 active site Q72R Q84E A117W) (DRD H53L)"}, "B11": {"name": "FKBP-134: FKBP13 DRD Q72R, Q84E, A117W, H41R; SEQ ID NO: 84 (protein)", "chain": "B1 chain with H1R, S9G, H77W", "modifications": "Description of sequence: FKBP13-AcGFP-mCherry Fusion; Construct Name: FKBP-134; FKBP13 DRD in Construct : FKBP13 (mutated to match FKBP12 active site Q72R Q84E A117W) (DRD H41R)"}, "B12": {"name": "FKBP-129: FKBP13 DRD Q72R, Q84E, A117W, E98L; SEQ ID NO: 79 (protein)", "chain": "B1 chain with S9G, E58L, H77W", "modifications": "Description of sequence: FKBP13-AcGFP-mCherry Fusion; Construct Name: FKBP-129; FKBP13 DRD in Construct : FKBP13 (mutated to match FKBP12 active site Q72R Q84E A117W) (DRD E98L)"}, "B13": {"name": "FKBP-130: FKBP13 DRD Q72R, Q84E, A117W, P107K; SEQ ID NO: 80 (protein)", "chain": "B1 chain with S9G, P67K, H77W", "modifications": "Description of sequence: FKBP13-AcGFP-mCherry Fusion; Construct Name: FKBP-130; FKBP13 DRD in Construct : FKBP13 (mutated to match FKBP12 active site Q72R Q84E A117W) (DRD P107K)"}, "B14": {"name": "FKBP-135: FKBP13 DRD Q72R, Q84E, A117W, E61Y; SEQ ID NO: 85 (protein)", "chain": "B1 chain with S9G, E21Y, H77W", "modifications": "Description of sequence: FKBP13-AcGFP-mCherry Fusion; Construct Name: FKBP-135; FKBP13 DRD in Construct : FKBP13 (mutated to match FKBP12 active site Q72R Q84E A117W) (DRD E61Y)"}, "B15": {"name": "FKBP-132: FKBP13 DRD Q72R, Q84E, A117W, G92Y; SEQ ID NO: 82 (protein)", "chain": "B1 chain with S9G, G52Y, H77W", "modifications": "Description of sequence: FKBP13-AcGFP-mCherry Fusion; Construct Name: FKBP-132; FKBP13 DRD in Construct : FKBP13 (mutated to match FKBP12 active site Q72R Q84E A117W) (DRD G92Y)"}, "B16": {"name": "FKBP-138: FKBP13 DRD Q72R, Q84E, A117W, G124R; SEQ ID NO: 88 (protein)", "chain": "B1 chain with S9G, H77W, G84R", "modifications": "Description of sequence: FKBP13-AcGFP-mCherry Fusion; Construct Name: FKBP-138; FKBP13 DRD in Construct : FKBP13 (mutated to match FKBP12 active site Q72R Q84E A117W) (DRD G124R)"}, "B17": {"name": "FKBP-137: FKBP13 DRD Q72R, Q84E, A117W, P75L; SEQ ID NO: 87 (protein)", "chain": "B1 chain with S9G, P35L, H77W", "modifications": "Description of sequence: FKBP13-AcGFP-mCherry Fusion; Construct Name: FKBP-137; FKBP13 DRD in Construct : FKBP13 (mutated to match FKBP12 active site Q72R Q84E A117W) (DRD P75L)"}},
  "system": "Jurkat cells",
  "assay": "Tacrolimus dose response of FKBP13-AcGFP-mCherry constructs stably transduced into Jurkat cells, GFP MFI by flow cytometry",
  "type": "cell-based",
  "details": "tacrolimus, Jurkat cells stably transduced; Table 6",
  "method": "The regulation of AcGFP, from FKBP13-AcGFP-mCherry constructs, in Jurkat cells, was also studied. Jurkat Clone E6-1 cells were cultured in standard media (RPMI+GlutaMAX Supplement (Life Technologies, Carlsbad, CA Cat #61870127), Fetal Bovine Serum (FBS) (Life Technologies Cat #10-082-147)). Jurkat cells were transduced with lentivirus produced with each of FKBP-039, FKBP-040, FKBP-041, FKBP-042, FKBP-043, FKBP-044, or FKBP-045 constructs. Jurkat cells were transduced until they were 10-25% positive, as determined on day 5 post-transduction, by using mCherry as a transduction marker. […] The Geometric Mean Fluorescent Intensity (MFI) of GFP expression in mCherry+ cells was plotted and dose response curve fits were performed using Prism Software (San Diego, CA).\nFKBP-091 was used as a comparative construct.\nFIGS. 22-38 show the results of characterization of FKBP-160-292. […] FKBP-091 and FKBP-117 was used as a comparative control for FKBP-160-FKBP-255. FKBP-195 was used as a comparative control for FKBP-256-FKBP-275. FKBP-117, FPBP-195 and FKBP-251 were used as a comparative control for FKBP-276-FKBP-292.\nFKBP mutants were cloned in a manner to make a fusion protein with AcGFP in order to assess FKBP mutant regulation by using AcGFP expression as a readout. […] Further iterative FKBP mutants (FKBP-256-FKBP-292) were constructed from these initial combinatorial mutants to see if we could further improve FKBP DRD properties.",
  "note": "Substitutions are numbered along the chain they refer to. Names may count otherwise.",
  "data": [
    {"molecule": "B1", "values": [
      {"measurement": "Fold Change", "value": 40.13}
    ]},
    {"molecule": "B2", "values": [
      {"measurement": "Fold Change", "value": 28.70}
    ]},
    {"molecule": "B3", "values": [
      {"measurement": "Fold Change", "value": 22.46}
    ]},
    {"molecule": "B4", "values": [
      {"measurement": "Fold Change", "value": 29.07}
    ]},
    {"molecule": "B5", "values": [
      {"measurement": "Fold Change", "value": 21.30}
    ]},
    {"molecule": "B6", "values": [
      {"measurement": "Fold Change", "value": 10.25}
    ]},
    {"molecule": "B7", "values": [
      {"measurement": "Fold Change", "value": 52.24}
    ]},
    {"molecule": "B8", "values": [
      {"measurement": "Fold Change", "value": 19.11}
    ]},
    {"molecule": "B9", "values": [
      {"measurement": "Fold Change", "value": 25.70}
    ]},
    {"molecule": "B10", "values": [
      {"measurement": "Fold Change", "value": 31.75}
    ]},
    {"molecule": "B11", "values": [
      {"measurement": "Fold Change", "value": 15.64}
    ]},
    {"molecule": "B12", "values": [
      {"measurement": "Fold Change", "value": 17.11}
    ]},
    {"molecule": "B13", "values": [
      {"measurement": "Fold Change", "value": 14.40}
    ]},
    {"molecule": "B14", "values": [
      {"measurement": "Fold Change", "value": 25.52}
    ]},
    {"molecule": "B15", "values": [
      {"measurement": "Fold Change", "value": 16.27}
    ]},
    {"molecule": "B16", "values": [
      {"measurement": "Fold Change", "value": 10.43}
    ]},
    {"molecule": "B17", "values": [
      {"measurement": "Fold Change", "value": 45.79}
    ]}
  ]
}
